Test results taken from PMC3280250, “Functional Redundancy of Two Pax-Like Proteins in Transcriptional Activation of Cyst Wall Protein Genes in Giardia lamblia”.

T1: Pax2m3 (Giardia lamblia, UniProt A8B733 1-171, del172-302)
T1 sequence: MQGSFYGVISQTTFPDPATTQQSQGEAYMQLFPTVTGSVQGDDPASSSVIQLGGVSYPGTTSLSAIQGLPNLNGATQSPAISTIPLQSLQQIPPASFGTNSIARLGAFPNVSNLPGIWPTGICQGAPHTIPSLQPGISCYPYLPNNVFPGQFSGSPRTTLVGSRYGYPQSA

T2: Pax2 (Giardia lamblia, UniProt A8B733 1-302)
T2 sequence: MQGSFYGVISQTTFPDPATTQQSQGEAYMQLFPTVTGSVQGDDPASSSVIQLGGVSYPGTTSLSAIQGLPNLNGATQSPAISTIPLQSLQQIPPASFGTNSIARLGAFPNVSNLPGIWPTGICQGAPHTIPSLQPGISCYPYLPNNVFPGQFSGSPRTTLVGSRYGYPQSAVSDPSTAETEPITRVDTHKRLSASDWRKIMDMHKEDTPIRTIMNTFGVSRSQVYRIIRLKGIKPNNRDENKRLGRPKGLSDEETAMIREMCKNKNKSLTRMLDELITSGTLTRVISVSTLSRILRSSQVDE


The binders below were run against T1, Pax2m3 (assay: EMSA; EMSA: 0.02 pmol 5'-32P probe, 5 ng protein, 20 ul, 0.5 ug poly(dI-dC), 15 min at room temperature, 6% acrylamide gel; buffer, salt and pH only by reference [31]). Conditions: protein: recombinant; tags: C-terminal V5-His (pET101/D-TOPO); label: 5'-32P.

Binder | binding result
cwp1-45/-1 (dsDNA) DNA 1: GTTTACAACTCTCAGATCAAGAAACACAGAAATAAAATATCAGGG DNA 2: CCCTGATATTTTATTTCTGTGTTTCTTGATCTGAGAGTTGTAAAC | no binding
cwp2-30/+8 (dsDNA) DNA 1: CAGCAGCTCAACAGTGGCTGGGAAAATAAAATGATCGC DNA 2: GCGATCATTTTATTTTCCCAGCCACTGTTGAGCTGCTG | no binding
ran-51/-20 (dsDNA) DNA 1: TAAAATAAATTAAATCGAAATTAAAACTTTAA DNA 2: TTAAAGTTTTAATTTCGATTTAATTTATTTTA | no binding
cwp3-30/+10 (dsDNA) DNA 1: GTCTTTCCCAAAAAATAAGTTACTACTGATATGTTTTCTC DNA 2: GAGAAAACATATCAGTAGTAACTTATTTTTTGGGAAAGAC | no binding

The binders below were run against T2, Pax2 in the same assay as above. Conditions: protein: recombinant; tags: C-terminal V5-His (pET101/D-TOPO).

Binder | binding result
GTTTACAACTCTCAGATCAAGAAACACAGAAATAAAATATCAGGG (ssDNA) [cwp1-45/-1 single strand 1] | no binding
ran-30/-1 (dsDNA) DNA 1: TAAAACTTTAACCCAGGAACCGAGAGTAGC DNA 2: GCTACTCTCGGTTCCTGGGTTAAAGTTTTA | no binding

Same assay, conditions: protein: recombinant; tags: C-terminal V5-His (pET101/D-TOPO); label: 5'-32P

Binder | binding result
poly(A) with TT insertion (dsDNA) DNA 1: AAAAAAAAAAATTAAAAAAAAAA DNA 2: TTTTTTTTTTAATTTTTTTTTTT | binds
myb2-60/-31 (dsDNA) DNA 1: TGGCTATGTATTTTTTCTTCTTCTACAGCT DNA 2: AGCTGTAGAAGAAGAAAAAATACATAGCCA | no binding
cwp1-90/-46 (dsDNA) DNA 1: CTGGCTAACAGTCTACAGTCTACAATTTACAGTATACAATCTACA DNA 2: TGTAGATTGTATACTGTAAATTGTAGACTGTAGACTGTTAGCCAG | binds
poly(A) with T insertion (dsDNA) DNA 1: AAAAAAAAAAATAAAAAAAAAAA DNA 2: TTTTTTTTTTTATTTTTTTTTTT | binds
cwp2-60/-31 (dsDNA) DNA 1: TAGACTGATGCTGTAGAGGTCAACAGATAA DNA 2: TTATCTGTTGACCTCTACAGCATCAGTCTA | no binding
cwp1-90/-69 (dsDNA) DNA 1: CTGGCTAACAGTCTACAGTCTA DNA 2: TAGACTGTAGACTGTTAGCCAG | no binding
poly(A) (dsDNA) DNA 1: AAAAAAAAAAAAAAAAAAAAAAA DNA 2: TTTTTTTTTTTTTTTTTTTTTTT | binds
poly(A) with TTT insertion (dsDNA) DNA 1: AAAAAAAAAATTTAAAAAAAAAA DNA 2: TTTTTTTTTTAAATTTTTTTTTT | binds
poly(A) with TC insertion (dsDNA) DNA 1: AAAAAAAAAAATCAAAAAAAAAA DNA 2: TTTTTTTTTTGATTTTTTTTTTT | binds
ran-51/-20 (dsDNA) DNA 1: TAAAATAAATTAAATCGAAATTAAAACTTTAA DNA 2: TTAAAGTTTTAATTTCGATTTAATTTATTTTA | binds
ran-81/-52 (dsDNA) DNA 1: CAGAAAAAGTTGTCAAGGAGGTGATAGCCG DNA 2: CGGCTATCACCTCCTTGACAACTTTTTCTG | no binding

These binders were tested against T2, Pax2 (assay: EMSA; unchanged; EMSA: 0.02 pmol 5'-32P probe, 5 ng protein, 20 ul, 0.5 ug poly(dI-dC), 15 min at room temperature, 6% acrylamide gel; buffer, salt and pH only by reference [31]). Conditions: protein: recombinant; tags: C-terminal V5-His (pET101/D-TOPO); label: 5'-32P.

Binder | binding result
cwp1-45/-1m9 (dsDNA) DNA 1: GTTTACAACTCTCAGATCAAGAAACACAGAAATAAAATACGGGGG DNA 2: CCCCCGTATTTTATTTCTGTGTTTCTTGATCTGAGAGTTGTAAAC | binds
cwp1-45/-1m11 (dsDNA) DNA 1: GTTTACAACTCTCAGATCAAGAAACACAGAAAAAAAAAAACAGGG DNA 2: CCCTGTTTTTTTTTTTCTGTGTTTCTTGATCTGAGAGTTGTAAAC | binds
cwp1-45/-1m5 (dsDNA) DNA 1: GTTTACAACTCTCAGATCAAGAAAGGGAGAAATAAAATATCAGGG DNA 2: CCCTGATATTTTATTTCTCCCTTTCTTGATCTGAGAGTTGTAAAC | binds
cwp1-45/-1m4 (dsDNA) DNA 1: GTTTACAACTCTCAGATCGGCGGGCACAGAAATAAAATATCAGGG DNA 2: CCCTGATATTTTATTTCTGTGCCCGCCGATCTGAGAGTTGTAAAC | binds

The binders below were run against T2, Pax2 (assay: EMSA; strong binding; EMSA: 0.02 pmol 5'-32P probe, 5 ng protein, 20 ul, 0.5 ug poly(dI-dC), 15 min at room temperature, 6% acrylamide gel; buffer, salt and pH only by reference [31]). Conditions: protein: recombinant; tags: C-terminal V5-His (pET101/D-TOPO); label: 5'-32P.

Binder | binding result
cwp3-30/+10 (dsDNA) DNA 1: GTCTTTCCCAAAAAATAAGTTACTACTGATATGTTTTCTC DNA 2: GAGAAAACATATCAGTAGTAACTTATTTTTTGGGAAAGAC | binds

These binders were tested against T2, Pax2 (assay: EMSA; self-competition and anti-V5 supershift assay confirm specificity; EMSA: 0.02 pmol 5'-32P probe, 5 ng protein, 20 ul, 0.5 ug poly(dI-dC), 15 min at room temperature, 6% acrylamide gel; buffer, salt and pH only by reference [31]). Conditions: protein: recombinant; tags: C-terminal V5-His (pET101/D-TOPO); label: 5'-32P.

Binder | binding result
cwp1-45/-1 (dsDNA) DNA 1: GTTTACAACTCTCAGATCAAGAAACACAGAAATAAAATATCAGGG DNA 2: CCCTGATATTTTATTTCTGTGTTTCTTGATCTGAGAGTTGTAAAC | binds
